Tests used:
Assay in all cases: pull-down
[1] = molecular target: T1, γζ-COP lacking the C-terminal appendage domain of γ-COP (γ-COP 1–617) (B. taurus, UniProt P53620 1-617; P35604 1-177)
T1 sequence (looked up) 1: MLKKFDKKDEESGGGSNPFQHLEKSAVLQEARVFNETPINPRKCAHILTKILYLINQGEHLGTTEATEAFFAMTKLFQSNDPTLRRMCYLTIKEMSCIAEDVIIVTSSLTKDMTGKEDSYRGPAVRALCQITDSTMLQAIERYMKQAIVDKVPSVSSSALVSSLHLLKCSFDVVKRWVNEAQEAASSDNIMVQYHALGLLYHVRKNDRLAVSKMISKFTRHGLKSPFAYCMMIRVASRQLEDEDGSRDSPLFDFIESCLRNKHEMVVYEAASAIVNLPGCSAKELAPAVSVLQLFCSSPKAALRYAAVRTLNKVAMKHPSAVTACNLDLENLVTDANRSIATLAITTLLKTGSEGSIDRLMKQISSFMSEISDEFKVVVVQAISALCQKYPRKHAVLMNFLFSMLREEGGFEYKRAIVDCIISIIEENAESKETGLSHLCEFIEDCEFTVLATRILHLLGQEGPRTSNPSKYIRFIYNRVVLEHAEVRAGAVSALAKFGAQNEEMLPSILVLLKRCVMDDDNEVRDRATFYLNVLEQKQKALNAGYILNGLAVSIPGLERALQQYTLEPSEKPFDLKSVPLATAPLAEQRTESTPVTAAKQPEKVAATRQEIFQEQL
T1 sequence (looked up) 2: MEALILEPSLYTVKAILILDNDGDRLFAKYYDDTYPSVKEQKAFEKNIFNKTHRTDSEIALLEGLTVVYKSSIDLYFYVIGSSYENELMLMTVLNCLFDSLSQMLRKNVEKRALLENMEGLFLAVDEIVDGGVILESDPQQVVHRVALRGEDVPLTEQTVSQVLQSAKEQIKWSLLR

full-length βδ-COP dimer = molecular target: T2, full-length βδ-COP dimer (R. norvegicus | B. taurus, UniProt P23514 1-953; P53619 1-511)
T2 sequence (looked up) 1: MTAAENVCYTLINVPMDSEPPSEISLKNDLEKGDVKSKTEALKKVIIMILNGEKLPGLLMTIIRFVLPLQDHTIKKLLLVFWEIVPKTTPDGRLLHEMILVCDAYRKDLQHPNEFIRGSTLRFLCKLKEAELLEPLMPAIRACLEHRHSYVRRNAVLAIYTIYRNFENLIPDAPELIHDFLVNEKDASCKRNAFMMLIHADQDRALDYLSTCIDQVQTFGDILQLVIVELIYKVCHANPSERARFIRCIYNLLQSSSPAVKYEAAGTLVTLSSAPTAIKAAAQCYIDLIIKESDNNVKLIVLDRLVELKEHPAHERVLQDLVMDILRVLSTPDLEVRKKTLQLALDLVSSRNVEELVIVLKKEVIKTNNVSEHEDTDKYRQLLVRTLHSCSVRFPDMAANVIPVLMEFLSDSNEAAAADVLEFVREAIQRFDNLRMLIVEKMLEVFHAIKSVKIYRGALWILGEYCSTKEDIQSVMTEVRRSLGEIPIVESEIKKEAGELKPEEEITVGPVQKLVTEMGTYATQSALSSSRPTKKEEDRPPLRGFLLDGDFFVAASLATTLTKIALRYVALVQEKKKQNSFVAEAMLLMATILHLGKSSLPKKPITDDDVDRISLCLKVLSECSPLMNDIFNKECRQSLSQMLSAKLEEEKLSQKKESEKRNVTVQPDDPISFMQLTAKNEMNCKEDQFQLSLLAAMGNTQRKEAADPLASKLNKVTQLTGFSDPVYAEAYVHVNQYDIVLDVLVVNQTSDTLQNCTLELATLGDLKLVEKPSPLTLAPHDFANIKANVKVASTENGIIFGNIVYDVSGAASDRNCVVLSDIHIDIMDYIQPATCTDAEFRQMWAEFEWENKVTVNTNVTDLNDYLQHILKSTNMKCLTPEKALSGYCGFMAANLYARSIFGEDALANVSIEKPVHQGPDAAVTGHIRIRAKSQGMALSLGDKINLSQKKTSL
T2 sequence (looked up) 2: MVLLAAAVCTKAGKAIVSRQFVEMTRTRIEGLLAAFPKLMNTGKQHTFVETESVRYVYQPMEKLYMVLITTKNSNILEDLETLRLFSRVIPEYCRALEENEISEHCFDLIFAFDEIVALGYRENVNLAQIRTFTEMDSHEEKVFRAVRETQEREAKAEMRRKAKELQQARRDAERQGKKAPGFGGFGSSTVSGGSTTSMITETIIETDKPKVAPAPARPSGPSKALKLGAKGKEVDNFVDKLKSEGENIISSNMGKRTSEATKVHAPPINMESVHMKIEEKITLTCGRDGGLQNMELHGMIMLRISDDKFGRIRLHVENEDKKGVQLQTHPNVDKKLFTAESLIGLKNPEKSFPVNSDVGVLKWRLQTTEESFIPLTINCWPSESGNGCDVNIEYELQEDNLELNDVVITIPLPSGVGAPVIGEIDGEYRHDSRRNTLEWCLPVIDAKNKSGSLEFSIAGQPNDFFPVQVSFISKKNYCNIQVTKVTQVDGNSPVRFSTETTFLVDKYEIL

[2] = molecular target: full-length βδ/γζ-COP complex (R. norvegicus | B. taurus, UniProt P23514 1-953; P53619 1-511; P53620 1-874; P35604 1-177)

Measured: binding result

B1: S. cerevisiae Arf1 (residues 18–181) with a C-terminal GST tag (domain or fragment, UniProt P11076 18-181, looked up)
chain: MRILMVGLDGAGKTTVLYKLKLGEVITTIPTIGFNVETVQYKNISFTVWDVGGQDRIRSLWRHYYRNTEGVIFVVDSNDRSRIGEAREVMQRMLNEDELRNAAWLVFANKQDLPEAMSAAEITEKLGLHSIRNRPWFIQATCATSGEGLYEGLEWLSNSLKNST
binds: [1] | full-length βδ-COP dimer | [2]

From publication PMC3285272 (Cell, 2012)
